Results reported in patent US7732133B2, “Screening methods for biologically active ligands” (Chugai Seiyaku Kabushiki Kaisha, priority 2000, dated 2010).

Biological target: T1, chimeric CNTF receptor (human CNTF receptor expressed in chimeric LIF receptor cell line LIG) in Ba/F3 cell line CNG (Homo sapiens, UniProt P26992+P40189+P42702)
T1 construct: from the 1st to the 372nd amino acid residues; expressed in transfected cells; host or cells: Ba/F3-derived cell line LIG transfected with pCV-CNTFR, clone CNG#203 = CNG
Test: Growth response of chimeric CNTF receptor-expressing Ba/F3 cell line CNG (WST-8)
Assay type: cell-based
Settings: 72 hours culture, WST-8 absorbance
Source text: Human CNTF receptor (from the 1st to the 372nd amino acid residues; Davis, S. et al. (1991) Science, 253, 59-63) cDNA was cloned downstream of the HEF1α promoter of a mammalian expression vector, pCV, to construct human CNTF receptor (CNTFR) expression vector, pCV-CNTFR. pCV-CNTFR was linearized with Pvu I (Takara Shuzo), extracted with phenol and chloroform, and purified by ethanol precipitation.
The linearized expression gene vector was introduced into the chimeric LIF receptor-expressing cell line LIG (see section 1-13) using an electroporation apparatus (Gene Pulser: Bio Rad). The LIG cells were washed twice with Dulbecco's PBS (hereinafter referred to as PBS), and then were suspended in PBS to give a cell density of about 1×10^7 cells/mL. […]
The cells were washed twice with Media A, and were suspended in Media A to give a cell density of 5×10^4 cells/mL. […] After the culture, 10 μL/well WST-8 reagent (Cell Count Reagent SF; Nacalai Tesque) was added, and pre-reaction absorbance at a measurement wavelength of 450 nm and a control wavelength of 655 nm was measured using microplate reader (Model 3550, Bio Rad). The plate was incubated for two hours in a CO2 incubator (CO2 concentration, 5%), and post-reaction absorbance was measured as above. […]

T1 sequence (P26992 23-372, change not shown): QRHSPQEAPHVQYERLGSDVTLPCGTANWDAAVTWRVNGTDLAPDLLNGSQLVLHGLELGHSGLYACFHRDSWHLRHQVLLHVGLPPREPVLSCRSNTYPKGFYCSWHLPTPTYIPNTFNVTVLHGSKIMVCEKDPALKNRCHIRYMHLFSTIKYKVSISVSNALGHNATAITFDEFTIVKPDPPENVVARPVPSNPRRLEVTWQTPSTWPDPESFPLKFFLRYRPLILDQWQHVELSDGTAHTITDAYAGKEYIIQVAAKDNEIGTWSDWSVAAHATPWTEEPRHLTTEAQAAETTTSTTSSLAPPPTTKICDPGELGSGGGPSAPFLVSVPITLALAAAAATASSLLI
T1 sequence (P42702 45-833, change not shown): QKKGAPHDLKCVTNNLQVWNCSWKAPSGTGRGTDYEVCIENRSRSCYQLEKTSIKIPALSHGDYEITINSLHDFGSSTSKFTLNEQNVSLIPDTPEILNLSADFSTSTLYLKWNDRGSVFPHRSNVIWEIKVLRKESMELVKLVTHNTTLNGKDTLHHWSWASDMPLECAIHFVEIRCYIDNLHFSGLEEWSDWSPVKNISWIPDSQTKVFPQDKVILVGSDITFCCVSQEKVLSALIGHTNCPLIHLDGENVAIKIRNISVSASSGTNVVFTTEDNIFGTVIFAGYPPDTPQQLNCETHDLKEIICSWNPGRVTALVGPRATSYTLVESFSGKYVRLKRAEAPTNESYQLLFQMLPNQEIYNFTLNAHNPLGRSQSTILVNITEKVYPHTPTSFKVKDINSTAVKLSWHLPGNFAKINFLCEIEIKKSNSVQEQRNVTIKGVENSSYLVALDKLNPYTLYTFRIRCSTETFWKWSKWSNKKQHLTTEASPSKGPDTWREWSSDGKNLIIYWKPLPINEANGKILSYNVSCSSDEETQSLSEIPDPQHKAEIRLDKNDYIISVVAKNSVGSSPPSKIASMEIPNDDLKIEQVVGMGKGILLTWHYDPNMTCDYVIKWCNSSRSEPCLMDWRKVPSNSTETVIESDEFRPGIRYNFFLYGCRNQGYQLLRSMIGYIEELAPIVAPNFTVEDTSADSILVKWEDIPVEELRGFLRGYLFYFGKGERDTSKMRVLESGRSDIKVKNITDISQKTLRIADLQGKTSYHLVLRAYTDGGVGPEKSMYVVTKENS
T1 sequence (P40189 23-619, change not shown): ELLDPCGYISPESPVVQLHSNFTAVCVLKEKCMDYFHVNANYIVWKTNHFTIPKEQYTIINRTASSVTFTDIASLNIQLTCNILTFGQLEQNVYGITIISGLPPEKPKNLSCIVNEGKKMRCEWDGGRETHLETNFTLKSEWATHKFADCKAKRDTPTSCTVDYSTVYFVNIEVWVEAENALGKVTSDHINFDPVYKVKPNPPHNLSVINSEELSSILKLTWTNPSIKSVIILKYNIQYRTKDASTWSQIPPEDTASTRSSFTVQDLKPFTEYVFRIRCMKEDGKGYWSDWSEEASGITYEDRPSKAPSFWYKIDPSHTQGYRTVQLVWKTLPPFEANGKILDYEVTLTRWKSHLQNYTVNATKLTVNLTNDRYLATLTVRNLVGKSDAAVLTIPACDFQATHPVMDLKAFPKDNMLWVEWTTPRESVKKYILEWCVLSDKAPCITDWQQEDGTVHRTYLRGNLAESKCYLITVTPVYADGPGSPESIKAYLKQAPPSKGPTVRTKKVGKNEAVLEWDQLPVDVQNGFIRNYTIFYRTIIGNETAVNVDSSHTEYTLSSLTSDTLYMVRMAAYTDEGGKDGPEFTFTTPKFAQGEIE
T1 sequence (P40223 627-837 partner limits assumed): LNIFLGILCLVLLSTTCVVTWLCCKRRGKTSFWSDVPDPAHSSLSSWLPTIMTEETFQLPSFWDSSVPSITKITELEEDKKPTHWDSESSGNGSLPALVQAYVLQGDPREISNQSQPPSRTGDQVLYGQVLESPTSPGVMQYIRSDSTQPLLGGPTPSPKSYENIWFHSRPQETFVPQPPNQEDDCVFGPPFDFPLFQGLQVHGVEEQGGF

concentration at which an evident growth reaction was observed: ≥ 0.3 ng/mL
B1: human CNTF: human ciliary neurotrophic factor (Genzyme) (protein, UniProt P26441 1-200, looked up)
Ciliary neurotrophic factor: MAFTEHSPLTPHRRDLCSRSIWLARKIRSDLTALTESYVKHQGLNKNINLDSADGMPVASTDQWSELTEAERLQENLQAYRTFHVLLARLLEDQQVHFTPTEGDFHQAIHTLLLQVAAFAYQIEELMILLEYKIPRNEADGMPINVGDGGLFEKKLWGLKVLQELSQWTVRSIHDLRFISSHQTGIPARGSHYIANNKKM
